From patent publication US20040253247A1 (Genentech, published 2004)
Bridges are numbered along the chain shown (N, C = ends). Where no end group is shown, it is not given here. code n = not defined here

Legend:
[1] = target: T1, IgG-Fc (UniProt P01857-1 108-330 = IgG part, limits assumed); test: synthetic peptide; competition assay not given
T1 construct: domain: IgG-Fc; also called biotinylated-IgG-Fc; biotin-IgG-Fc

[2] = target: T1, IgG-Fc; test: synthetic peptide; method of the Kd not named
[3] = target: T1, IgG-Fc; test: competition ELISA against immobilized Protein A Z-domain for biotinylated IgG-Fc; IC50 extrapolated to zero IgG-Fc
Protocol: Competition ELISAs were performed in a manner similar to the method described in H. B. Lowman, et al., supra. […] Plates were then washed and developed as described using avidin/HRP conjugate. Inhibition curves were then computed for each concentration of biotin-IgG-Fc, and then the curve of half-maximal inhibition, “IC₅₀”, was extrapolated to zero biotin-IgG-Fc concentration in order to obtain a Kᵢ.

[4] = target: T2, rabbit albumin (rabbit, UniProt P49065 25-608); test: SA08b competition binding assay with a rabbit albumin coat
Protocol: (§1) Plates were blocked using Blocker Casein (Pierce Chemical, Rockford, Ill.) for 1 hr, at 25° C. […] The amount of HRP bound was measured using ABTS/H₂O₂ substrate and monitoring the change at 405 nm.

[5] = target: T3, rat albumin (rat, UniProt P02770 25-608); test: SA08b binding assay: competition with biotinylated SA08b for immobilized albumin
Protocol: as §1

[6] = target: T2, rabbit albumin; test: as above
Protocol: as §1

[7] = target: T4, mouse albumin (mouse, UniProt P07724 25-608); test: as above
Protocol: as §1

[8] = target: T3, rat albumin; test: SA08b competition binding assay with a rat albumin coat
Protocol: as §1

[9] = target: T4, mouse albumin; test: SA08b competition binding assay with a mouse albumin coat
Protocol: as §1

[10] = target: T5, albumin (species not stated, D3H44 fusion assays); test: SA08b competition binding assay (competitor: biotinylated SA08b), albumin species not given
T5 construct: also called immobilized albumin
Protocol: as §1

[11] = target: T3, rat albumin; test: phage ELISA, photograph of the plate
[12] = target: T2, rabbit albumin; test: phage ELISA, photograph of the plate
[13] = target: T6, ovalbumin (UniProt P01012 2-386); test: phage ELISA, photograph of the plate
T6 sequence (looked up): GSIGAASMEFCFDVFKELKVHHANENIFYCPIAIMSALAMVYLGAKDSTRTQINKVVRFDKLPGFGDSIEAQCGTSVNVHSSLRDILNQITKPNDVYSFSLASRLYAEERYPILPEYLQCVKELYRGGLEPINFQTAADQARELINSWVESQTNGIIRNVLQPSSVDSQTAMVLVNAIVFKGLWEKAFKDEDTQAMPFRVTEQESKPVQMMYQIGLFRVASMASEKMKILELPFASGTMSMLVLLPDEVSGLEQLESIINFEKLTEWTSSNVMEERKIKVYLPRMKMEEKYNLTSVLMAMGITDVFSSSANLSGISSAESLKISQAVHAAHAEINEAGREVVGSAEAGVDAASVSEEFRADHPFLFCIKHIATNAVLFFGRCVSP

[14] = target: T4, mouse albumin; test: phage ELISA, photograph of the plate

T3 sequence (P02770 25-608 limits assumed): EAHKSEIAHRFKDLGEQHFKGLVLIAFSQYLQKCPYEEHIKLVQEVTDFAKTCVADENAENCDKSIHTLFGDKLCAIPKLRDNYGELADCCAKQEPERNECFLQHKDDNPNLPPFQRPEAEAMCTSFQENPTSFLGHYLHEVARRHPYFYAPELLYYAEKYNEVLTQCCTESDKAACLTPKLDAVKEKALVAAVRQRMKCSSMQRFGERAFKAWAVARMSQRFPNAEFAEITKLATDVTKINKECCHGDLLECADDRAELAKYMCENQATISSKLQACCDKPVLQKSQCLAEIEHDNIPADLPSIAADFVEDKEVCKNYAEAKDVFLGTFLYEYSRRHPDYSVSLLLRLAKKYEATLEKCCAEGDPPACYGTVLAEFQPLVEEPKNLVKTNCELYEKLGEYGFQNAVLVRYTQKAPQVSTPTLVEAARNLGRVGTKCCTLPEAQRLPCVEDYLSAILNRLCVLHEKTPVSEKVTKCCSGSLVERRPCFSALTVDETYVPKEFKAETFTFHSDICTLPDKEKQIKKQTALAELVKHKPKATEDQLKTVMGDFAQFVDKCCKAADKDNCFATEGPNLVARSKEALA
T4 sequence (P07724 25-608 limits assumed): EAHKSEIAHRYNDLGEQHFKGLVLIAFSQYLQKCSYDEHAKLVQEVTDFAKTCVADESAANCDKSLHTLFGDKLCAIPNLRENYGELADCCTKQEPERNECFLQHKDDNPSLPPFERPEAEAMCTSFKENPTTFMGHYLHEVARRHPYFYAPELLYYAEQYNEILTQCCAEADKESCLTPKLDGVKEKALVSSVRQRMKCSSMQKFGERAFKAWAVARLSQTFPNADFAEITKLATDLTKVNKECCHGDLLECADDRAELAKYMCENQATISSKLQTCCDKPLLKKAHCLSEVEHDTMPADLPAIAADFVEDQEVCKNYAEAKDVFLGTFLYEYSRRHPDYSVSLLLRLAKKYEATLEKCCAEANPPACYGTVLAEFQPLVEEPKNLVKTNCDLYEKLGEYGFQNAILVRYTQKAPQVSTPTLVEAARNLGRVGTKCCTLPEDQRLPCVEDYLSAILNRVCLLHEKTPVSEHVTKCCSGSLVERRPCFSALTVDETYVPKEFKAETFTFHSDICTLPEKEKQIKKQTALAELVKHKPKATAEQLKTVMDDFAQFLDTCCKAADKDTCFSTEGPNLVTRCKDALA
T2 sequence (P49065 25-608 limits assumed): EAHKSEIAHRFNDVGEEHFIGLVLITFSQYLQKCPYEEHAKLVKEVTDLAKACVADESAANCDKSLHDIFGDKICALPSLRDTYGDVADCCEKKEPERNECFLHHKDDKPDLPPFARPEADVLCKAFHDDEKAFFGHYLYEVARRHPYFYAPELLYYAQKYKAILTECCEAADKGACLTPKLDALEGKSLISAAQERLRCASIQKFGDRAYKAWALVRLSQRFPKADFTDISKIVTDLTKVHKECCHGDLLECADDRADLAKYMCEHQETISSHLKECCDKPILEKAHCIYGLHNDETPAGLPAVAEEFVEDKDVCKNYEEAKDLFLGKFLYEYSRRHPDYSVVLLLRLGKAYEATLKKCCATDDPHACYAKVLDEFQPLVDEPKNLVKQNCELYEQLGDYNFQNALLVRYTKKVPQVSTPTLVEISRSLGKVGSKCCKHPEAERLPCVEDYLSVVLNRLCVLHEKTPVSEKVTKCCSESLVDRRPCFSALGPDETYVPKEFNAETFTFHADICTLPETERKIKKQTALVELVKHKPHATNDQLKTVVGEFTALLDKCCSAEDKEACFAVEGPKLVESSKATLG
T5 sequence (P49065 25-608): as the sequence (P49065 25-608 limits assumed) above

B1: peptide WEADCAWHLGELVWCTPMEF (peptide)
peptide: H-WEADCAWHLGELVWCTPMEF-NH2
modifications: disulfide 5-15 (inferred)
notes: Synthetic peptide
IC50 [1]: 30 nM

B2: peptide DLADCSWHMGELVWCSRVEG (peptide)
peptide: H-DLADCSWHMGELVWCSRVEG-NH2
modifications: disulfide 5-15 (inferred)
notes: Synthetic peptide
Kd [2]: 50 nM

B3: Fc-I peptide ETQRCTWHMGELVWCEREHN (peptide)
peptide: H-ETQRCTWHMGELVWCEREHN-NH2
modifications: disulfide 5-15 (inferred)
notes: Synthetic peptide; disulfide-constrained library origin
Ki [3]: 5000 nM

B4: SA06 (peptide)
peptide: QRLMEDICLPRWGCLWEDDF-{code n}
modifications: disulfide 8-14 (inferred); not fully specified; reading uncertain
notes: synthesized peptide; also called Peptide SA06
IC50 [4]: 174 nM
IC50 [5]: 68 nM
IC50 [6]: 128 nM
IC50 [7]: 8 nM
IC50 [8]: 61 nM
IC50 [9]: 8 nM

B5: Fc-II peptide KEASCSYWLGELVWCVAGVE (peptide)
peptide: H-KEASCSYWLGELVWCVAGVE-NH2
modifications: disulfide 5-15 (inferred)
notes: as for B3
Ki [3]: 5000 nM

B6: SA08 (peptide)
peptide: Ac-QGLIGDICLPRWGCLWGDSVK-{code n}
modifications: disulfide 8-14 (inferred); reading uncertain; also: printed as Gln-Gly-Leu-Ile-Gly-Asp-Ile-Cys-Leu-Pro-Arg-Trp-Gly-Cys-Leu-Trp-Gly-Asp-Ser-Val-Lys
notes: synthesized peptide; not biotinylated form of SA08b; also called SA08 peptide
IC50 [5]: 68 nM
IC50 [6]: 63 nM
IC50 [7]: 10 nM
IC50 (read off the curve) [10]: ~10 nM

B7: HA-H74 (peptide)
peptide: EVRSFCTDWPAHYSCTSLQG
notes: phage clone, Library HA
binding result [11]: no binding
binding result [12]: no binding
binding result [13]: no binding
binding result [14]: no binding
